Test [1] concerns the target T1, CD137-hisFc fusion protein (Sino Biological Cat 10041-H03H) (human, UniProt Q07011 24-186).
T1 construct: Bought; also called recombinant human CD137 (fused with human Fc and His tag); not shown: His tag and human Fc
As to the kind of experiment: BLI Octet, Fab. A general note: Biolayer interferometry detects binding as a change in optical thickness at a sensor tip.

In test [2] the target is T1, CD137-hisFc fusion protein (Sino …). Kind of test: BLI Octet, Fab. This is another data set of the same source.
Test [3] has as its target T2, mouse CD137 fused with human FC fragment (mouse, UniProt P20334 24-178, limits assumed).
T2 construct: also called mouse CD137-Fc; not shown: human Fc fragment
T2 sequence: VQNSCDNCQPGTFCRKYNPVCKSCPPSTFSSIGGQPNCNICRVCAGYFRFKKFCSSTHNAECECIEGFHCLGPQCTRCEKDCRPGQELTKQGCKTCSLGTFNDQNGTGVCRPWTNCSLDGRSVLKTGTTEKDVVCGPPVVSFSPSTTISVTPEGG
As to the kind of experiment: ELISA, Fab captured by anti-human IgG (Fab specific), CD137-Fc added, anti-human Fc-HRP. Background: An ELISA detects its analyte on a solid surface through an enzyme-linked reagent.

Test [4] deals with T3, full-length mouse CD137 on the cell surface (mouse, UniProt P20334 24-178).
T3 sequence: T2 sequence
Kind of test: flow cytometry, yeast display [Cont.]. (In general: In flow cytometry, cells or beads pass a laser one at a time.)

Another test deals with T4, Hu_CRD2 (human, UniProt Q07011 46-86, limits assumed).
T4 construct: also called human CD137 CRD2
T4 chain: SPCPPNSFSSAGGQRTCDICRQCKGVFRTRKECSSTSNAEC
Kind of test: flow cytometry, yeast display [Cont.].

The target of test [5] is T5, full-length human CD137 on the cell surface (human, UniProt Q07011 18-255).
T5 construct: also called Human WT
As to the kind of experiment: flow cytometry, yeast display [Cont.].

Test [6] has as its target T5, full-length human CD137 on the cell …. Kind of test: flow cytometry, HEK293F.
In test [7] the target is T6, rat CD137 on the cell surface (rat, UniProt Q4W8J3 24-258).
T6 sequence: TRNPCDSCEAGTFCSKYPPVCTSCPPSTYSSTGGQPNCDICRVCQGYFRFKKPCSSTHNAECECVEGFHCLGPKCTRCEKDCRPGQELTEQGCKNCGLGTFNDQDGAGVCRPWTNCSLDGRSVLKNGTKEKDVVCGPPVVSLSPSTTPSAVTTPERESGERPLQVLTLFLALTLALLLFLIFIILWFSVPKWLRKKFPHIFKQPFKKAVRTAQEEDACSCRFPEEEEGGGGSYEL
Kind of test: flow cytometry, HEK293F cells expressing CD137.

In test [8] the target is T2, mouse CD137 fused with human FC fragment. Kind of test: ELISA, coated CD137-Fc.
A further test has as its target T7, Hu_CRD2-CRD3 (human, UniProt Q07011 46-118, limits assumed).
T7 construct: also called two CRD units (CRD2-CRD3) of human CD137
As to the kind of experiment: flow cytometry, yeast display [Cont.].

For the next test, the target named is T8, Hu_CRD1-CRD2 (human, UniProt Q07011 24-86, limits assumed).
T8 construct: also called two CRD units (CRD1-CRD2) of human CD137
As to the kind of experiment: flow cytometry, yeast display [Cont.].

The target in another test is T9, Hu_CRD4 (human, UniProt Q07011 119-159, limits assumed).
T9 construct: also called human CD137 CRD4
T9 chain: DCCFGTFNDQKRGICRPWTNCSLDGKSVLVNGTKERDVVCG
Kind of test: flow cytometry, yeast display [Cont.].

The next test addresses T10, Hu_CRD3 (human, limits assumed).
T10 construct: also called human CD137 CRD3
T10 chain: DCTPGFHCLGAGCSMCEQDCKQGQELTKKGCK
As to the kind of experiment: flow cytometry, yeast display [Cont.].

A further test addresses T11, Hu_EL111AA (human, UniProt Q07011 18-255).
T11 construct: On HEK293F
As to the kind of experiment: flow cytometry, HEK293F.

A further test addresses T12, Hu_GQ109AA (human, UniProt Q07011 18-255).
T12 construct: On HEK293F
As to the kind of experiment: flow cytometry, HEK293F.

The target of the next test is T13, Hu_TN137AA (human, UniProt Q07011 18-255).
T13 construct: On HEK293F
As to the kind of experiment: flow cytometry, HEK293F.

The next test deals with T14, Hu_GT150AA (human, UniProt Q07011 18-255).
T14 construct: On HEK293F
As to the kind of experiment: flow cytometry, HEK293F cells expressing CD137 or mutant [Cont.].

For a further test, the target named is T15, Hu_FN125AA (human, UniProt Q07011 18-255).
T15 construct: On HEK293F
The description is as above.

The target in a further test is T16, Hu_PW135AA (human, UniProt Q07011 18-255).
T16 construct: On HEK293F
Described as above.

The target in test [9] is T17, human CD137-His6 (Sino Biological #10041-H08H) (human, UniProt Q07011 24-186).
T17 construct: Bought; also called human CD137 protein; not shown: His6 tag
Kind of test: SPR Biacore, IgG captured.

In test [10] the target is T18, mouse CD137 protein (Biacore) (mouse, UniProt P20334 24-178, limits assumed).
T18 construct: Construct used as SPR analyte not described
T18 sequence: T2 sequence
As to the kind of experiment: SPR Biacore.

A further test addresses T19, Hu_FH92AA (human, UniProt Q07011 18-255).
T19 construct: On HEK293F
As to the kind of experiment: flow cytometry, HEK293F cells expressing CD137 or mutant [Cont.].

The next test deals with T20, Hu_FSS53AAA (human, UniProt Q07011 18-255).
T20 construct: On HEK293F
T20 chain: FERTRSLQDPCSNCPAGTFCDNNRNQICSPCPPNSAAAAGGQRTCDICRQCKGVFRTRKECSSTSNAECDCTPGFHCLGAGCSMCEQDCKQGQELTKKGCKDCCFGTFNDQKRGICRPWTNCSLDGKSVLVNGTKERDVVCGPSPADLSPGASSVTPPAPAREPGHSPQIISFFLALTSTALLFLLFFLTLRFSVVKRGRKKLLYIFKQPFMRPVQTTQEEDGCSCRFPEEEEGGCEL
Described as above.

A further test has as its target T21, Hu_GTF34AAA (human, UniProt Q07011 18-255).
T21 construct: On HEK293F; also called GFT34AAA
T21 chain: T20 chain with G17A, T18A, F19A, A36F, A37S, A38S
The test is described as above.

In another test the target is T22, Hu_CRD2-CRD3-CRD4 (human, UniProt Q07011 46-159, limits assumed).
T22 construct: also called three CRD units (CRD2-CRD3-CRD4) of human CD137
Kind of test: flow cytometry, yeast display [Cont.].

Another test addresses T23, Hu_CRD1-CRD2-CRD3 (human, UniProt Q07011 24-118, limits assumed).
T23 construct: also called three CRD units (CRD1-CRD2-CRD3) of human CD137
Kind of test: flow cytometry, yeast display [Cont.].

The next test deals with T24, Hu_CRD3-CRD4 (human, UniProt Q07011 87-159, limits assumed).
T24 construct: also called two CRD units (CRD3-CRD4) of human CD137
As to the kind of experiment: flow cytometry, yeast display [Cont.].

Test [11] addresses T5, full-length human CD137 on the cell …. Kind of test: cell-based or functional assay.
Test [12] concerns the target T3, full-length mouse CD137 on the cell …. Kind of test: flow cytometry, HEK293F cells expressing CD137 or mutant.
In test [13] the target is T5, full-length human CD137 on the cell …. The test is described as above.

Residue numbers refer to the chain shown, from its start. Read-outs that look alike come from different tables or passages of the source.

In general, Kd refers to a measure of binding affinity in units of concentration. High values mean lower affinity, low ones higher affinity. The term koff denotes a measure of how fast the partners let go of each other. High values mean a short-lived complex, low ones a long-lived complex. The kon is the second-order rate constant of association. A higher kon goes with fast association.

B1: Fab 5351 (Fab, V domains shown)
VH: EVQLVESGGGLVQPGGSLRLSCAASGYSITSGHYWAWIRQAPGKGLEWVSSISGYGSTTYYADSVKGRFTISRDNSKNTLYLQLNSLRAEDTAVYYCARGGSDAVLGDWFAYWGQGTLVTVSS
VL: DIQLTQSPSSLSASVGDRVTITCRASQGIGSFLAWYQQKPGKAPKLLIYDASNLETGVPSRFSGSGSGTDFTLTISSLQPEDFATYYCQQGYYLWTFGQGTKVEIKR
notes: Fab from E. coli; also called VH25/VL25
For B1, in test [1], binding was characterised by a dissociation constant (Kd) of 7.29 nM, the off-rate constant (koff) stood at 0.0034 s⁻¹ and the kon is 466000 M⁻¹ s⁻¹. In test [2], binding was put at a Kd of 7.3 nM, the koff came out at 0.0034 s⁻¹ and the kon worked out at 470000 M⁻¹ s⁻¹. The binding result in test [3] is given as “no binding”.

B2: AC1121 (antibody, V domains shown)
VH: QVQLQQWGAGLLKPSETLSLTCAVYGGSFSGYYWSWIRQSPEKGLEWIGEINHGGYVTYNPSLESRVTISVDTSKNQFSLKLSSVTAADTAVYYCARDYGPGNYDWYFDLWGRGTLVTVSS
VL: EIVLTQSPATLSLSPGERATLSCRASQSVSSYLAWYQQKPGQAPRLLIYDASNRATGIPARFSGSGSGTDFTLTISSLEPEDFAVYYCQQRSNWPPALTFGGGTKVEIK
Consider B2, for which the “% in upper right quadrant” value was 0.4% in [4]; 0.26% in the test with Hu_CRD2; 32.2% in [5]; 0.12% with Hu_CRD2-CRD3; 51.4% with Hu_CRD1-CRD2; 0.15% with Hu_CRD4. In addition, the “% in upper right quadrant” value turned out to be 0.22% in the test with Hu_CRD3; 0.42% with Hu_CRD2-CRD3-CRD4; 57.2% with Hu_CRD1-CRD2-CRD3; 0.18% with Hu_CRD3-CRD4; 27.8% in test [13]. Also, the Mean was determined as 13100 in test [4]; 4050 with Hu_CRD2; 93600 in [5]; 12800 with Hu_CRD2-CRD3; 26000 with Hu_CRD1-CRD2; 6770 with Hu_CRD4. Also, the Mean in the test with Hu_CRD3 was 13900; with Hu_GT150AA, 21300; with Hu_FN125AA, 23100; in the test with Hu_PW135AA it was 53900; with Hu_FSS53AAA it was 16700; with Hu_GTF34AAA, 8620. Moreover, the results for the Mean with Hu_CRD2-CRD3-CRD4, with Hu_CRD1-CRD2-CRD3 and with Hu_CRD3-CRD4 were 29500, 46500 and 3460, respectively. The Kd in test [6] turned out to be 3.3 nM; in test [9], 9.6 nM. In addition, the binding result in [7] is reported as “no binding (tested: 100 nM (text paragraph 220))”; in test [8] it was “no binding”; with Hu_EL111AA, “binds”; with Hu_GQ109AA, “binds”; with Hu_TN137AA it was “binds”; in test [10], “no binding”. Moreover, the binding result is “binds” in the test with Hu_FH92AA and “no binding (tested: 100 nM (as in Example 5))” in test [12]. For the same molecule, in test [11], the “NFκB reporter: EC50 (nM) With Cross-Linker” value amounted to 2.51 nM. In test [11], the “NFκB reporter: EC50 (nM) Without Cross-Linker” value was 1.27 nM.

Source of the values: patent US20190055314A1 (ADAGENE, published 2019).
